Literature values as cited in patent US20210106646A1, “Combination Of A Novel Topical Gel And Oral Supplements For Healing Diabetic Foot And Other Wounds” (Smart Products & Services Inc. (dba Aloevive), priority 2019, published 2021).

Conditions: topical use, per product website

Regranex Gel: Regranex (becaplermin) Gel is a recombinant human platelet-derived growth factor used to treat lower extremity diabetic ulcers
rare but serious side effects: allergic reactions such as rash, itching, swelling (especially of the face/tongue/throat), dizziness, and trouble breathing
